Test results taken from the domain aggregation screens of Martell et al. (2025).

Assay: soluble fraction after stress (log2 fold change); higher = more stays soluble; pooled small domains, quantitative proteomics
Details: stress: 50 degC
Outline: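 After stress at 50°C, the amount of each protein still soluble was measured. This was done on pooled custom libraries of small protein domains, using high-throughput quantitative proteomics. The figure given is a base-two log fold change and stands for aggregation propensity, with higher values meaning more protein stays in solution.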

| Sequence | soluble fraction (log2) |
| --- | --- |
| HMATPAFEMYKVRRGDTPAGLAKEWGFPDMASFYRINPDARSDWKRGLQLVKPMNEMAVLQATA | -0.255 |
| HMFPELDEEEQKITKLLQAQNDLPANIIAVKTALNIGTTQAKLFSLEMKGVVKPYAGGFYHLL | -0.25 |
| HMSHSVLIDISQLRIGMYIQLDVGWMHHPFPVSSFRVASLEQIEALRTLNLAQVRYFPAKSDPV | -3.6 |
| HMGQGAASAPLRELGVDPVSEKQMVLKDGRFGPYVTDGETNASLRKGDEVETITDERASELLQMRRDAGPS | -0.195 |
| HMKKDLATYAYEHIKQMVIDRELMPGERIQQEVLARELGISRTPLVTALNRLASENLVELEANKGFSVRRF | -0.0386 |
| HMVKIIHYEVYANRGDGWKLVDQFSADQRQEAVNLAKEIETEDQVAVKIIREIFDVQDNTYQESVEYIG | -0.51 |
| HMGRSARVQQAVHQAVRALLEENDGERSALSVPLVAERAGVNSSTIYRRWGDLPRLLAAVASN | -0.481 |
| HMGNASQAARRQRIVDAALELLQDRPYDQIQMRDVAEGAGVALGTLYRYFPSKEQLFAHVLVE | 0.027 |
| HMGQVPPLTRRETEIARLVSRGLSNKEIASTLVISPRTAEGHVEHILDKLGFSSRTQIATWLNEQTRNGK | -0.0938 |
| HMTQGIDQISFSQFLDKVQSGEVTDVRISGSDITGTLKTGGKFETVAGNYEKIWDLLRENKVVFVVDSP | 0.0436 |
| HMNEGETLYRLRAGDGRARLDKFLAAALPDISRTRFKGLIESGHVRVGGETITEPAYRVKSEAEVELTVPE | 0.0139 |
| HMLDEKAVRQYLLNTLENSEIKMDRQAIDLFLRLTDLDLSKMMRELQKILLYGQEQEVITVKEIEQ | -0.856 |
| HMGFDTSMNKYTIDDLLKLLELGSNPSQAEIVNKITNFNTIFVDNSGVIQFLNNIQDKLLDNFK | -0.396 |
| HMETGKLIKELRLKKGMTQEELADKTEVSSRTIQRIENGEVDPRAYTLQMIARALEVDYSLFME | 0.0531 |
| HMSNLENSLNESLSLLKSNKYNEALEILKKIEIEDSRVFFLLGTIYSVMKNINLGEEFLIKASK | -1.48 |
| HMTDVIADMLTRIRNAASSKHQTVDIPSSNLKKEIAKILLEEGYIRDFIEIDDKKQGIIRITL | -0.389 |
| HMSTVIENVFKNFEVYEIKKGDTFYNIEKRFGVNRQELLVLNPELKEGLKLGMVLKIKEIIP | -1.07 |
| HMEMKHKNSQIFQAIKLKHMGFTPTQISEELRVSRTTINHWLTKAQLKDVKWEDIRENSADELVKLLFG | -0.229 |
| HMEKALEVKYQKMVELLGDQSTFYVDEVKKIFPEMKKSSLYWNMSKLVEGGYLRRIRNGVYAFNE | -0.48 |
| HMQLSMLPYGFARRHGVLLVEQDEQPTLIHRAGITATVIAEVQRVAGQIDAWRLVDDARFDQQLAEVYRD | -1.06 |
| HMKKPKTVLSEEQKEFIINQAQDGVSAYDIARILFPSVNVTNLSKEVIDVAEFIRDTDIKLLADSE | 0.0694 |
| HMGTHDAGTRFFDNLDSLLQNRDATRADVLAVYLLAVSLGFRGKHRSVSSAPQIAHYRNQAYVTLFQ | 0.546 |
| HMPGLQSVTPAELKIGMYVILPLAWDEHPFLKNHFLIQSEAQINKIRELGTKGIQIDLSKSHP | -0.904 |

| Sequence | soluble fraction (log2) |
| --- | --- |
| HMPSQLPLAFARRHGVLLRGFSNGLAQLTVRPEVSTLSLAETRRHLGVPLALEKVTTERFDQLLREAYEA | -0.37 |
| HMNNMVNTLLKLLAEQDVLRGIVRRFTPSSVFVFLQNEEVEVELPLQGRSLAPGQLVELTQEGASVALKRL | -0.647 |
| HMQYFDIETEIQKFIKSENNLSDFDKETLQSFLYQLSKGSPEENTAKKVVDILNKFLPLTTAIINMIKALT | 0.168 |
| HMNTETAVTKAIDQIQVMMDLRNRSVSFTRDQETGTDIIKVIDDNTGDTIRQMPSEELLTFMKNLTQ | 0.147 |
| HMSDLLYAHPTEKGFQLVNVTQKVVMVILKTAAPNVYTVKGKNAIVFKEGNSWFYSENHNKKLLNIK | -1.13 |
| HMYIDNVTIYDVGFNERIVHALERAGVKNLYDLSQMNFYQLQRIRNLGASSLEKVINRIHSYGILLKNES | -1.2 |
| HMQRYFINEPVPEDQRLVLPKDIAHHLVDVLRAEQNDELEVALNDQKVYLARLISLNPATVELQSDLG | 0.266 |
| HMADTFVMPDLVYRRYEPVRGYFERGGFHMGAVKFEPYEGISDGTILRQNPLPGHPLRRRDVISLVVAAS | -2.23 |
| HMGGHLAYGFSRRFGLLIDEQQGEPVIIARPDYSPVHYAEARRIVGQPAALRVVDEQAFNQLLQSQQESGA | -0.346 |
| HMGSNLSFDLSQIIASRYQEKAAELGLTAPSLARTDLSPQEQATAEVVARAIIADYYDQRVAPFNDLIPQ | -0.394 |
| HMHDLSQQIVRYLIQQGGSSSLTDKSDPQEIYRTFKVSKKKYKQALGNLYKSKTIVITSGKIELVD | -2.69 |
| HMEVKSGFVHLTGAVKSPGVYPISIGMRLFEVIALAGGFTAKADRESVNLARTVTDGEQIIVSGSG | -1.7 |
| HMYDPVNEIGRVLKKIRQERSLTLDNVAEITGVSKTMLGQIERGVSVPTISVLWKIAKGLQVSLSTLLNE | -0.826 |
| HMEAISIYPNPTDNELHLSTSVQEVRIYNMYGIEVTRAANTDRLAVSHLPKGVYLVHADGAVLKMIK | -1.26 |
| HMNPNPFVNLSPRELEVLNLLFKGYGVLEISNELNIGQTTASTFKSRILKKTSTHSVVELIKLAEQYGFIP | -0.508 |
| HMGSWEDALKNWVDSALASGQKGILEQAVPKFERIMIETALTHTAGRRRDASLLLGWGRNTLTRKIKELGI | -0.214 |
| HMLPKAERREQLMAVARSVFAEQGYHTTSMEIIAETAGVSKPLLYQHFPSKLDLYLALLDAGID | -1.56 |
| HMINYYELLKLDMNAAHEEINDAIKLESEKNTIPEDQIRTMKSIFFNTEFKKEYDQRLMNFLLT | -0.319 |
| HMRHTRQRQAVLDALVRSGQALSPQDLLGQAKSAVPSLNLSTVYRQIKGLQDAGQIVRVELPGQPPRFEM | -0.107 |
| HMNPTLPYGFAKRHGVILLEAGEVAVVGLREGADPAALIETRRALGRPLRVEPLDQATFDRRLSQVYA | -0.148 |
| HMTNYGTVRPGARGQAVTALQQALIRHGYKLTADGIYGRATRQAVRAFQQKHKLKVDGIVGSKTWALLLAD | -1.04 |
| HMPQNLQDQLFELILSRYPRRADAVEDLANILHLGKDPVYRRLRGDTFLSPLEISTLALHFRISLDALIV | -2.55 |
| HMERDIATKHEVNRTVEAYSDIVKTLNLPSHKINLVEISFFNILKRSKPSPRENSILLGLAQKIKLHLEKK | -0.477 |

| Sequence | soluble fraction (log2) |
| --- | --- |
| HMDLTPEEQMDLYRLLDSLPTEERTYLILHYFEERSFPEMAEILSMPEAKLKSRFYRILHRLRAHL | -2.56 |
| HMVKNYYEILEVDKKASPEVIEKAYKTLAKKYHPDLQEAENNGQYEEKMKEINEAYSVLSDEFKRRTYDEQ | 0.114 |
| HMQERTVVKGVVVQVSRDEAYVDIGYKQEIPVSKRDLAVPAPDDARDVVKVGDEIDVYIKSLGGDNGG | -0.00098 |
| HMIINLGELLKMLEVNKYQDAMDALDSLIEEGGSLEKIESLHEIRQHTHAMNFREAERLLSILIESEGA | -0.746 |
| HMSDLTEVIVKFSGDIQPIRQDLDAQVEILLKGYAIITLSPNKIGRLYSYPQIESIEIPKNLYI | -1.26 |
| HMTTTYEINDEMLKPLILEIFNKSKQRFGSTKIAPVLKREGYTASIAKVKTLMNELGIKPVNA | -0.319 |
| HMGVSLREVPVAEHGDWIGRPIKELGIPAEVLIVLVRRADGTTVVPKGGTVLQQGDMLVVNEWEE | -0.426 |
| HMTGKVSHGERKSVLVSLAGSMRARGMSIDAVRAGLYADNEKRFDPPLDERDIEDVLNSAKKWGDP | -0.322 |
| HMETIGENIKTYRQKKGYTQEEVANRLHVTRQTISKWEKNYSIPDAEVLVKLADVLEVQTSQLLGV | 0.102 |
| HMEAVLTISPGMYSESVSAELVRLGIITNQKEFNSYLVNNGYAERIQTGDFKIKADMSYDEIARIITK | 0.231 |
| HMGVDMGPAKYVGQKALTATEMRPAGKIQIGQTVFDAVSVGPFIGARKAVKVIKYENAQLYVEPE | 0.00597 |
| HMTYKHLTIDEMKRFLSTREDSQSALVQFARVENVVGNRKGKYAVIKKWFLKNYKEEYNAFLS | -0.17 |
| HMQLPDLDEIRQMRKRLDLSQRELAALAGVSQSLIAKIEKGSIDPSYDNVRKIFNAFENILKKRALE | -0.255 |
| HMSDLQTGDINQDGTVDEKDLSLLHSYNLELIKTISNAADLNEDGVINGLDEAYLKRLFLQNSDP | -0.0614 |
| HMSKIVPVAYSQFLKDVKNGNVSQVEIRGNNIKGINNNGSSFSTYAPNDLSLIDKLEKSNVEIIVMPLE | -0.125 |
| HMRRISLEDWQLIESLIRRDWSPEQISLWLKKYKKIRVSHEWIYQYILKDKSKAGDLHTHLRSR | -0.174 |
| HMRRMAYLVGQRGLAMGDFISGTGQVRIGDTVWRAEAVEGELVRTGDTVVVEGAKMTTAIVRRVM | -0.351 |
| HMIYAEDFVGRQGTANTILRPSGRIEIEGEVYDAYTRGEYVEAGERVVVISQEGSTLKVRVV | -0.683 |
| HMVQDDLRELEGISTELLAKLADAGITNRDDLADLAIDELVAITGQSEDDAKALIMKAREHWFAGDA | -0.0273 |
| HMDPKWSHVRRLLDDENPIVRKALTEELIRSPEEGLAFLEQVIREPDHLLAKHAHNLLSELGWV | 0.0264 |
| HMSETLESYTTRLKQLEEIADSFQGVDKTFAIQAGREIRVMVVPEQISDDDMILLARDISNQIEENLDY | -0.122 |
| HMSGEPVKSTLPGNVFKILVAVGDSVKKGQRMFVLEAMKMEIDVNAPKDGLVTSIEVQQGQTVANGQILAK | 0.0741 |
| HMGVGVKSTEVDYQRTSSGSDIPTDDAAWTKTIPAVKVNTFLWTRTKINYTDGTSAIFYSVGY | -0.281 |
